Experimental findings from patent CN111995682A (BIOSION BIO TECH NANJING CO LTD, dated 2020) are described below.

One assay addresses T1, 人SIRPβ-ECD-His抗原 (human, UniProt O00241 30-371).
T1 construct: It ends in a His tag; also called SIRPβ抗原
As to the kind of experiment: ELISA summary (Table 3, methods of Example 2). Background: In an ELISA, binding on a coated surface is turned into a signal by an enzyme label.

Assay [1] deals with T2, 重组人SIRPα带his标签的蛋白 (human, UniProt P78324 31-373).
T2 construct: extracellular domain; also called 人SIRPα-his抗原; SRPA-ECD-His; not shown: C-terminal His tag from vector pCMV-C-His
Description: SPR (Biacore T200), ratio of KD against Benchmark.

Assay [2] has as its target T2, 重组人SIRPα带his标签的蛋白. As to the kind of experiment: SPR (Biacore T200), antibody captured on anti-mouse IgG CM5 chip, human SIRPα-his as analyte. Background: SPR reads the build-up and loss of mass on a sensor chip optically.
The target in assay [3] is T2, 重组人SIRPα带his标签的蛋白. Description: SPR (Biacore T200), human SIRPα-his as analyte.

T2 sequence (P78324 31-373): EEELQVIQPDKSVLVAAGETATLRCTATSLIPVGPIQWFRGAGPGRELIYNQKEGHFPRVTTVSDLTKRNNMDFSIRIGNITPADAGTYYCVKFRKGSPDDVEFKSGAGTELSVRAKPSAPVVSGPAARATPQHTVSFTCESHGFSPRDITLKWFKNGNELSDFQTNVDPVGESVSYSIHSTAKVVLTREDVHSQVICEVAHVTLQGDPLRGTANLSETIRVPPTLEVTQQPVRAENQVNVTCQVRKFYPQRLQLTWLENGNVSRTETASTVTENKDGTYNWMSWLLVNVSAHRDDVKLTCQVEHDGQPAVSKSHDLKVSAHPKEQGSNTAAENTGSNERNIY
T1 sequence (O00241 other isoform, or with tags, fused parts or gaps): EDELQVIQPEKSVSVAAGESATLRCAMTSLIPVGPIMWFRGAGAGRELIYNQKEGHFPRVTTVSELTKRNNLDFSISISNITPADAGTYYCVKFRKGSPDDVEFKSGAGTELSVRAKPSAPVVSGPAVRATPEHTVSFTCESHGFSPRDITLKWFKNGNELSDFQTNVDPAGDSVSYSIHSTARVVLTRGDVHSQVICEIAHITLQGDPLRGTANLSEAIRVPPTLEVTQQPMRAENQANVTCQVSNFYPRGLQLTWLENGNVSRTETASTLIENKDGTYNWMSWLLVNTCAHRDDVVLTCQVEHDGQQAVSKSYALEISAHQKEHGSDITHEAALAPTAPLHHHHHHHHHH

B1: 抗人SIRPα单克隆抗体 A2D9D1B1 (antibody, mouse IgG1, kappa, V domains shown)
VH: QVQLKESGPGLVAPSQSLSITCTVSGFSLSSYAIHWVRQPPGKGLEWLGVIWTGGSTIYNSALMSRLNISKDNSKSQVFLKMNSLQTDDTAMYYCARGNYLRYWGQGTLVTVSA
VL: NIVLTQSPASLAVSLGQRATISCRASESVDSYGYSYMHWNQQKPGQPPKLLIYLASDLESGVPARFSGSGSRTDFTLTIDPVEADDAATYYCQQNNDDPWTFGGGTKLEIKR
notes: also called 鼠抗A2D9D1B1; A2D9D1B1单克隆抗体
For the molecule B1, the binding result with 人SIRPβ-ECD-His抗原 is recorded as “binds”. In addition, the “fold stronger affinity than Benchmark” value with 重组人SIRPα带his标签的蛋白 [1] was about 2.4 fold. In addition, binding in the assay with 重组人SIRPα带his标签的蛋白 [2] was put at a Kd of 1.25 nM.

B2: Benchmark (KWAR23抗体) (antibody, human IgG4 S228P, kappa, V domains shown)
VH: EVQLQQSGAELVKPGASVKLSCTASGFNIKDYYIHWVQQRTEQGLEWIGRIDPEDGETKYAPKFQDKATITADTSSNTAYLHLSSLTSEDTAVYYCARWGAYWGQGTLVTVSA
VL: QIVLTQSPAIMSASPGEKVTLTCSASSSVSSSYLYWYQQKPGSSPKLWIYSTSNLASGVPARFSGSGSGTSYSLTISSMEAEDAASYFCHQWSSYPRTFGAGTKLELKR
notes: Made in-house; full heavy and light chains are printed; The printed constant regions look human, while the ELISA and Biacore protocols describe anti-mouse capture and detection reagents; also called BM; 参照抗体
With B2, the dissociation constant (Kd) – broadly, the concentration at which binding is half-saturated – with 重组人SIRPα带his标签的蛋白 [3] stood at 2.94 nM.
